The values below are quoted from earlier work in patent US7037697B2, “Isozyme of autoclavable superoxide dismutase (SOD), a process for the identification and extraction of the SOD and use of the said SOD in cosmetic, food, and pharmaceutical compositions” (Council of Scientific & Industrial Research, priority 2000, dated 2006).

For this series the following is noted: Cu/Zn-SOD, Bonaccorsi di Patti et al. 1994.

With ox: Cu/Zn-SOD from ox, the conformational melting temperatures was 88.05 °C.

B1: yeast: Cu/Zn-SOD from yeast (protein, UniProt P00445 2-154, looked up)
Superoxide dismutase [Cu-Zn]: VQAVAVLKGDAGVSGVVKFEQASESEPTTVSYEIAGNSPNAERGFHIHEFGDATNGCVSAGPHFNPFKKTHGAPTDEVRHVGDMGNVKTDENGVAKGSFKDSLIKLIGPTSVVGRSVVIHAGQDDLGKGDTEESLKTGNAGPRPACGVIGLTN
For the molecule B1, the conformational melting temperatures was 73.1 °C.
